Reference: US6987169

Biological target: rSK2 small conductance, calcium-activated potassium channel (rat), P70604
Sequence (P70604 whole entry): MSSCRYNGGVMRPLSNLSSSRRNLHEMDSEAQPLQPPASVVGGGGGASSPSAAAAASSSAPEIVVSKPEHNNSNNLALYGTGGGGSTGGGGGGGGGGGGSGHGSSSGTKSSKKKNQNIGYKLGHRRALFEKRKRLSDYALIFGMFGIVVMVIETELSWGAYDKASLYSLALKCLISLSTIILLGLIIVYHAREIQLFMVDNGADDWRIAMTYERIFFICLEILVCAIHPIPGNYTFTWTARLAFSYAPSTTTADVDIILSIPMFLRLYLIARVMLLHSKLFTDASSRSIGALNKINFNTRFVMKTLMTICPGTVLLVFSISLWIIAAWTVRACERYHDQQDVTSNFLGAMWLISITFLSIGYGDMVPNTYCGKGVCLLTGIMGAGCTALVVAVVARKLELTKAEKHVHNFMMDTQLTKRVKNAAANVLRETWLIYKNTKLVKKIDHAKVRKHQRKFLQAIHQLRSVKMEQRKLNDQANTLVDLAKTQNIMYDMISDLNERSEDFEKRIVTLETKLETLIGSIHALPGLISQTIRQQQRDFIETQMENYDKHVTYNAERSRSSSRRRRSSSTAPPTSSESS

Binder: CNCKAPETALCARRCQQH (modifications not checked) [apamin, P01500 28-45]
- Kd: 63 µM
